Laboratory results reported in the nanobody polyreactivity screen of Harvey et al. (2022).

Assay: yeast display, Sf9 membrane polyspecificity reagent, FACS + sequencing; frameworks hold sequencing errors
Outline: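 Nanobodies came from a synthetic yeast display library in Saccharomyces cerevisiae BJ5465, induced with galactose for 36–48 hours and stained for 1 hour at 4 °C with 10% biotinylated, detergent-solubilized Sf9 membrane reagent. Cells were enriched on streptavidin microbeads and then FACS-sorted, with low and high (top ~1%) gates set on anti-HA fluorescence for expression and streptavidin fluorescence for reagent binding. Each polyreactivity label reflects the gate a clone came from. Genes were amplified by colony PCR, sequenced by MiSeq 2 × 250 and filtered by CDR length.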

Sequence | polyreactivity (PSR sort gate)
QVQLVESGGGLVQAGGSLRLSCAASGSIFGKNAMGWYRQAPGKERELVASITWDGSSTYYADSVKGRFTISRDNAKNTVYLQMNSLKPEDTAVYYCNADYHVQYEYYPYDYWGQGTQVTVSS | low polyreactivity
QVQLVESGGGLVQAGGSLRLSCAASGSIFDNNAMGWYRQAPGKERELVAAISRSGGSTYYADSVKGRFTISRDNAKNTVYLQMNSLKPDDTAVYYCAALPSRPRGYDYWGQGTQVTVSS | high polyreactivity
QVQLVESGGGLVQAGGSLRLSCAACVRTFSGYAMGWYRPAPGKERELVAAIRWSGGSTYYADSVKGRFTISRDNAKNTVYLQMNSLKPEDTAVYYCATRDYYYRYGYWGQGTQVTVSS | high polyreactivity
QVQLVESGGGLVQAGGSLRLSCAASGSTFTSNAMGWYRQAPGKERELVAAISFSDASTYYADSVKGRFTISRDNAKNTVYLQMNSLKPEDTAVYYCAADSDQDAYDYWGQGTQVTVSS | low polyreactivity
QVQLQESGGGLVQAGGGLRLSCAASGTISGPHVMGWYRQAPGKEREFVAAINVGANTYYADNVKGRFTISRDNAKNTVYLQMNSLKPEDTAVYYRAAVYYGDIGHEYWGQGTQVTVSC | low polyreactivity
QVQLVESGGGLVQEGGSLRLSSAASGRTFGTNPMGWYRQAPGKERELVAAISTRDGSTYYADSVKGRFSISRDNAKNTVYLQMNSLKPEDTAVYYCNAVVRYYDWGYLDYDYWGQGTQVTVSS | low polyreactivity
QVQVVESGGGLVQAGGSLRLSCAASGSISDSYAMGWYRQAPGKERELVAAITSGDSTYYADSVKGRFTISRDNAKNTVYLQMNSLKPEDTAVYYCAKRVSRVRGYGFTDWSEYDYWGQVTQVTVSS | low polyreactivity
QVQLVESGGGLVQAGGSLRLSCAASGFIITTYAMGWYRQAPGTEREVVAGISSSGGSTRYADSVKGRFTISRDNAKNTVYLQMNSLKPEDTAVYYCNVLRYRGYDYWGQGTQVTVSS | high polyreactivity
QVQLVESGGGLVQAGGSLRLSCAASGFTSKTNAMGWYRQAPGKERELVAGITRTGGSTYYADSVKGRFTISRDNAKNTVYLQMNSLKPEDTAVYYCAREYGDGYEYWGQGTQVTVSS | low polyreactivity
QVQLVESGGGLVQAGGSLRLSCAASGSIFNYYAMGWYRQAAGKERELVAVITSGGSTYYAESVKGRFTISRDNAKYSVYLQMNSLKPEDTAVYFCAADDGTGEASVSSNLYDYWGQGTQVTVSS | low polyreactivity
QVQLVESGGGLVQAGGSLRLSCAASGSISAAYAMGWYRQAPGKERELVADISSSGVSTYYADSVKGRFTISRDNAKNTVYLQMNSLKQEDTAVYYCAKNRVAGYRKYDYWGQGTQVTVSS | low polyreactivity
QVQLVESGGGLVQAGGSLRLSCAASGSTFPYNAMGWYIQAPGKERELVAAISSRGGRTYYADSVKGRFSISRDNAKYTVYLQMNSLKPEDTAVYYCAARVVSRKDMNYWGQGTQVTVSS | high polyreactivity
QVQLVESGGGLVQAGGSLRLSCAASGSIFYTNAMGWYRQAPGKERELVAAISCSGDSTYYADSVKGRFTISRDNAKNTVYLQMNSLKPEDTAVYYCNADRRSYNGFRYYYWGQGTQVTVSS | low polyreactivity
QVQLVESGGGLVQAGGSLRLSCAASGSTSSVYAMGWYRQAPGKERELVAAISYRGARTYYADSVKGRFTISRDNAKNTVYFQMNSLKPEDTAVYYCAAENYPRRPRYDYWGQATQVTVSS | high polyreactivity
QVQLVESGGGLVQAGGSLRLSCAASGSILYWYAMGWYRQAPGKERELVAGIDWSGGSTYYADSVKGRFTISRDNAKNTVYLQMNSLKPEDTAVYYCNAVQNRGRGSHRGESTYYYWGQGTQVTVSS | low polyreactivity
QVQLVESGGGLVQAGGSLRLSCAASGRTIQWYAMGWYRQAPGKERELVAGISFSGGSTYYADSVKGRFTISRDNAKNTVYLQMNSLKPEDTAVYYCNAQGYTTYRGDYWGQGTQVTVSS | high polyreactivity
QVQLVESGGGLVQAGGSLRLSCAASGSIFGYYAMVWKRQAPGKESELVAAMNYSGVSTYYADSVKGRFTISRDNAKNTVYLQMNSLKPEDSAVYYCARDIRRKGFRYDYWGQGTQVTVSS | high polyreactivity
QVQLVESGGGLVQAGGSLRLSCAASGRTFRWNAMGWYRQAPGKERELVAAISSGGSTYYADSVKGRFTISRDNAKNTVYLQMNSLKPEDTAVYYCAKSSFKYRWSYPVISMDYWGQGTQVTVSS | high polyreactivity
QVQIVESGGGLVQAGGSLRLSCAASGRIFYNYAMGWNRQAPGKERELVAAISGSGGSTYYADSVKGRFTISRDNAKNTVYLQMNSLKPEDTAVYYCSTSGPQYYSRNFDYWGQGTQVTVSS | low polyreactivity
QVQLVESGGGLVQAGGSLRLSCAASGFTFYLYTMGWYRQAPGNESELVATITSDGGTNYADSVKGRFTISRDNAKNTVYLQMNSLKPEDTAVYYFNAASRRGSRKQAKYDYWGQGTQVTVSS | low polyreactivity
QVQLVESAGGLVQAGGSLRLSCAASGLIFRFNAMGWYRQAPGKERELVAAITRAGSTYYADSVKGRFTISRDNAKKTVYLQMNSLKPEDTAVYYCAAGQYRLPQRGYGYWGQGTQVTVSS | high polyreactivity
QVQLVESGGGLVQAGGSLRLSCAASGRTFYKNTMGWYIQAPGKERELVATISQRGGSTYYADSVKGRFTISRDNAKNTVYLQMNSLKPEDTAVYYCNARKYTQSIHYDYWGQGTQVTVSS | high polyreactivity

Sequence | polyreactivity (PSR sort gate)
QFQLVESGGGLVQAGGSLRLSCAASGFIFKPYTMGWYRQAPGKERELVATITFSGGSTYYADSVKGRFTISLDNAQNTVYLQMNSLNPEDTAVYYCADPRYYRGYSIFDYLGQGTQVTVSS | low polyreactivity
QVQLVESGGRLVQAGGSLRLSCAASGSTFAVYAMGWYRQAPGKERELVAAINRSGDSTYYADSVKGRFTISRDNAKNTVYLQMNSLKPEDTAVYYCAVSAWTRSHALYYWGQGTQVTVSS | high polyreactivity
QVQLVESGGGLVQAGGSLRLSCAASGSIFQHYAMGLYRQAPGKERELVAAISYDTTSTYYADSVKGRFTISRDNAKNTVYLQMNSLKPEDTAVYYCNTYPEVYGPFQYDYWGQGTQVTVSS | low polyreactivity
QVQLVESGGGLVQAGGSLRLSCAASGFIIGSYAMGWYRQAPGTERELVAAITRSGGNTYYADSVKGRFTISRDNAKNTVYLQMNSLKPEDTAVYYCAAYSGYWYDYWGQGTQVTVSS | high polyreactivity
QVQLVESGGGLVQAGGSLRLSCAASGSIFLAYAMGWYRQAPGKERELVAAITAGTGSTYYADSVKGRFTISRDNAKNTVYLQMNSLKPEDTAVYYCAKAVSLFRGPFSSFDYWGQGTQVTVSS | low polyreactivity
QVQLVESGGGLVQAGGSLRLSCAASGRTFGGYALGWYRQAPGKERELVAAISSGGGTYADSVKGRFTISRDNAKNTVYIQMNSLKPEDTAVYYCAAGYRWYWASKPTVHYYYWGPGTQVTVSS | high polyreactivity
QVQLVESGGGLVQAGGSLRLSCAASGITFADNARGWYRQAPGKERELVASISNSSGSTYYADSVKGRFTISRDNAKNTVYLQMNSLKPEDTAVYYCATDPYVRRSPSWYDYWGQGTQVTVSS | low polyreactivity
QVQLVESGGGLVQAGGSLRLSCAASGRTFTIYAMGWYRQAPGKERDLVAAITRSGGGTYYADSVKGRFTISRDNAKNTVYLQMNRLKPEDTAVYYCARDKHWFYGVIGPEDYWGQGTQVTVSS | low polyreactivity
QVQLQESRGGLVQAGGSLCLSCAASGTIFIDGDMGWYRQAPGKEREFVAAIKPGGSAYYADSVKGRLPLAAITHTVYLQMNSLKPEDTAVYYCAAKLFDVYGYYYWGQGTQVTLSS | low polyreactivity
QVQLVESGGGLVQAGGSLRLSCAASGLIIPFYAMGWYRQAPGKERELVAAISWSAGSTYYADSVKGRFTISRDNAKNTVYLQMNSLKPEDTADYYCATERNPADFYWGQGTQVTVSS | low polyreactivity
QFQLVESGGGLVQAGGSLRLSCAASGSTFPLYAMGWYRPAPGKERELVAAITSGGGNTYYADSVKGRFTISRDNAKNTVYLQMNSLKPEDTAVYSCAAVGGYKSYYSYEYDYWGQGTQVTVSS | low polyreactivity
QVQLVESGGGLVQAGGSLRLSCAASGSIFGLYGMGWYRPAAGKERELLAAITGRGGSTYYADSVKGRFTISRDNAKITVYLQMNSLKPEDTAVYYCAALRYTFAGRFDYWGQGTQVNVSS | high polyreactivity
QVQLVESGGGLVQAGGSLRLSCAASGLIFRKNAMGWDRQAPGKERELVAAMSYNGASTYYADSVKGRFTISRDNAKNTVYLQMNSLKPEDTAVYYCAAYAGYSDQARYYYWGQGTQVTVSS | high polyreactivity
QVQLEESGGGLVQAGGSLRLTCAASGSTSQIYAMGWYRQAPGKERELVAAINGVGSTNYADSVKGRFTISRDNAKNTVYLQMNSLKPEDTAVYYCAADGTALHEYLGDYDYWGQGTQVTVSS | low polyreactivity
QVQLVESWGGLVHAGGSLRLSCAASGSTFYWYAMGWYIQAPGKEREFVARISSSGSSTFYADSVKGRFTISRDNAKNTVYLQMNSLKPEDTAVYYCAAETYRHYCFNYWGQGTQVTVSS | high polyreactivity
QVQLVESGGGLVQAGGSLRLSCAASGYTFYANAMGWYRQAPGKEREFVASITWSGGSTYYADSVKGRFTISRDNAKNTVYLQMNSLKTEDTAVYYCAAESWFKYDYWGQGTQVTVSS | low polyreactivity
QVQLVESGGGLVQAGGSLRLSCAASGFIFPTNVMGWYRQAPGKEREFVASITWRGGGTYYADSVKGRFTISRDNAKNTVYVQMNSLKPEDTAVYYCAAGRSWSSYWKYDYWGQGTQVTVSS | low polyreactivity
QVQLVESGGGLVQAGGSLRLSCAASGRTFKPYAMGWYRQARGKERELVAAISTRGGSTYYADSVKGRFTISRDNAKNTVYLQMNSLKPEDTAVYYCAATQPGRDYDYWGQGTQVTVSS | low polyreactivity
QVQLVESGGGLVQAGGSLRLSCAASGRIFGGYAMGWYRQAPGKERELVAAIRDSGRTYYADSVKGRFTISRDNEKNTVYLQMNRLKPEDTAVYYCAADAHSSYSPFRWYDYWGQGSQVTVSS | low polyreactivity
QVQLVESGGGLVQAGGSLRLSCAASGRIFDYYAMGWYRQEAGKERELVARITSGGTTNYADSVKGRFTISRDNAKNTVYLQMNSLKPEDTAVYYCNAQDYSDPLQMDYWGQCTQVTVSS | low polyreactivity
QVQLVESGGGLVQAGGSLRLSCAASGSILYVYAMGWYRQAPGKERELVAAISFSGGSTYYADSVKGRFTISRDNAKNTVYLQMNSLKPEDTAVYYCAADVSYDIYVEYDYWGQGTQVTVSS | low polyreactivity
